Measurements taken from the supplement of paper PMC12764529.
± gives the half width of the 95% confidence interval.

How the values were obtained:
[1] = folding stability dG unfold (combined trypsin and chymotrypsin); higher = more stable
Outline: (§1)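 Designed mini-proteins (under 80 residues, no cysteine) in a PA-tagged cDNA display construct were digested with trypsin and chymotrypsin. Each protease was used at 11 concentrations (threefold dilutions) plus a no-protease condition, followed by sequencing. K50 was inferred by Bayesian fitting of sequencing counts, and unfolding free energy was derived against a sequence-predicted unfolded-state K50 and a shared folded-state K50, per protease or combined. Only designs with AlphaFold2 dimer inter-PAE above 15 were kept.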

[2] = folding stability dG unfold from trypsin proteolysis; higher = more stable
Outline: as §1

[3] = folding stability dG unfold from chymotrypsin proteolysis; higher = more stable
Outline: as §1

| Sequence | folding stability dG unfold [1] | folding stability dG unfold [2] | folding stability dG unfold [3] |
| --- | --- | --- | --- |
| SAGGSAGGSETVVIKIEVSPEELEKLKEALEEAGYEVEIRVERDENGKLTVTVTIRLPPGVKPSAGGSAGGS [r12_653_TrROS_Hall] | 2.86 ± 0.086 kcal/mol | 3.18 ± 0.17 kcal/mol | 2.57 ± 0.069 kcal/mol |
| SAGGETKTITIKVDGKLVTITVKKNKNGEELVTVKVYENGKLVEEVTMSKDELEELAKKLGLSVEELKSAGG [r13_108_TrROS_Hall] | 3.62 ± 0.1 kcal/mol | 3.27 ± 0.091 kcal/mol | 3.81 ± 0.051 kcal/mol |
| SAMKTVTIKVTVEVTKNENGEEVKTVTVTLTLPEEEMTEEQLKELAKELADKLAEENNLTVKITKIEVTSAG [r14_190_TrROS_Hall] | 3.08 ± 0.06 kcal/mol | 3.27 ± 0.19 kcal/mol | 2.93 ± 0.1 kcal/mol |
| SAGGSAGGSAGMKLTITVTFPDGTTPTFEVPPNSGDPAEVAAAIRAAHPDVVTITITPELSAGGSAGGSAGG [r11_311_JUSTAS] | 0.448 ± 0.12 kcal/mol | 0.683 ± 0.039 kcal/mol | 0.27 ± 0.063 kcal/mol |
| SAGGSAGGSAGASLKEELGFAEVLSRSPTPDTEPLLLKHPEGGELVTVEVDAATAVEWLESAGGSAGGSAGG [r11_630_JUSTAS] | 0.354 ± 0.24 kcal/mol | 0.343 ± 0.091 kcal/mol | 0.424 ± 0.17 kcal/mol |
| SAGGSAGGMPLLALSYPVLKDGKLYRVLFLYSPDGTFLGPFYVSADLTEDIPPDTVVLVHPDALSAGGSAGG [r6_33_TrMRF] | 3.55 ± 0.1 kcal/mol | 3.24 ± 0.09 kcal/mol | 3.523 ± 0.03 kcal/mol |
| SAGGSADDVKIKVEYERNPENGYGQITVEVEDPDGKDLKVEIMFPNMTPEEMEKQAKDIAKEIAKKSAGGSA [r15_526_TrROS] | 0.719 ± 0.23 kcal/mol | -0.526 ± 0.21 kcal/mol | 1.26 ± 0.19 kcal/mol |
| SAGGSAGGSAGGSTPSFTPVLELEFEFENDVVVRVRLYRLPDEDTYLLEVEVAPDSLKDSAGGSAGGSAGGS [r4_163_TrMRF] | 3.62 ± 0.13 kcal/mol | 2.88 ± 0.093 kcal/mol | 4.11 ± 0.1 kcal/mol |
| SAGGSAKVIVEELPDGSIKIYFPETGAVIVLNPETGEAVVFVNPKKKNNEPPSLDDVLKAAKEALGSAGGSA [r15_735_TrMRF] | 1.28 ± 0.063 kcal/mol | 0.413 ± 0.041 kcal/mol | 1.6 ± 0.019 kcal/mol |
| SAGGSADSVTFTDPNVEEQIVIPPYVIFKYPDGSVRIIAFDDGDKAEILEEIPFVPPLEPLHPDLESAGGSA [r15_393_TrMRF] | 1.06 ± 0.17 kcal/mol | 0.84 ± 0.03 kcal/mol | 1.11 ± 0.076 kcal/mol |
| SAGMPSVTVTPVTVTVEGTAPPDLTEEELRADPTYTRTVEIDATVTLYPETGTVTVTLPGGVTVTLPSPSAG [r5_701_JUSTAS] | 0.79 ± 0.095 kcal/mol | 0.432 ± 0.075 kcal/mol | 0.929 ± 0.031 kcal/mol |
| SMKKVLIVTPNPEINPEEVVKALKEKGFKEIKVFSTPEELKEALPEYDIVIIEENGKLYIKYIPPGKLAKSA [r9_750_TrMRF] | 1.35 ± 0.27 kcal/mol | 0.334 ± 0.17 kcal/mol | 1.79 ± 0.12 kcal/mol |
| SAGGSAGGSVRIPGGQPNTKVTVTVRLPDGTPVEVEATVNPSGEITLDLPDVSPDLIESIELSSAGGSAGGS [r12_477_JUSTAS] | 0.82 ± 0.038 kcal/mol | 1.14 ± 0.019 kcal/mol | 0.478 ± 0.027 kcal/mol |
| SAGGMVRITRDEDGILRVELFVEGTPEEAEEEAARLVRLLEELGFEEVRVEREPFGDGVVVTIEAKASAGGS [r8_113_TrMRF] | 2.74 ± 0.076 kcal/mol | 2.55 ± 0.11 kcal/mol | 2.86 ± 0.083 kcal/mol |
| SAGGSAGGYRIRFKNGIEFKLPMTEGELKKMADNFPGFEVTEVEPVPPPPPPPEDLPPEQREQMSAGGSAGG [r6_881_TrROS] | -0.0695 ± 0.32 kcal/mol | -0.134 ± 0.36 kcal/mol | 0.148 ± 0.23 kcal/mol |
| SGLTNLRVEAELVPPGVLRVTFTEGGKPVYELTFTVVVPAPPVVEPVLLPNGVPALVVYDPATGKPVVYPSA [r9_343_TrMRF] | 2.86 ± 0.08 kcal/mol | 2.17 ± 0.13 kcal/mol | 3.27 ± 0.11 kcal/mol |
| SAGGSAMRPLELENPNGREITIWYNPGEGHFQVEIERYEPPPNGKKKPQRHTFMVNSPEDLLDFIKSAGGSA [r15_31_TrROS] | 1.65 ± 0.19 kcal/mol | 1.57 ± 0.046 kcal/mol | 1.6 ± 0.15 kcal/mol |
| SIWFSPGKKYKIDEIRFGGWEIEKFTAQVGPDGNIQIPMDIKPVKKPPPPPPVVRNPEDGKYYDPGDPKDSA [r9_603_TrROS] | 1.04 ± 0.78 kcal/mol | -0.127 ± 0.39 kcal/mol | 1.64 ± 0.25 kcal/mol |
| SAGGKEKYKIKIYNKKTGKEYEFEIPLDEIVKYDKKNKKIYIKLKNGKKLEFKSLEDIVKIEIEKLPSAGGS [r8_111_TrROS_Hall] | 3.14 ± 0.14 kcal/mol | 2.34 ± 0.088 kcal/mol | 3.48 ± 0.056 kcal/mol |
| SAGMKPSPEGKTIITIDTSTGKVDVVFPDGKEFTLPFDSSSIEEIIKTIKEKLGYPPEVPFNIDEIEIASAG [r5_923_JUSTAS] | 2.31 ± 0.079 kcal/mol | 2.41 ± 0.1 kcal/mol | 2.239 ± 0.019 kcal/mol |
| SAGGSAGGSKTYKIKVEKLEDGTYKLKIIDKKTKKEYEITISKKNLPKIKEIKITKNGKIEIKSAGGSAGGS [r20_11_TrROS_Hall] | 2.75 ± 0.12 kcal/mol | 1.73 ± 0.026 kcal/mol | 3.08 ± 0.071 kcal/mol |
